According to patent US20240093191A1, “COMPOSITIONS AND METHODS FOR TREATING DISEASE ASSOCIATED WITH DUX4 OVEREXPRESSION” (RESEARCH INSTITUTE AT NATIONWIDE CHILDREN'S HOSPITAL, priority 2021, published 2024):

Assays:
Type in all cases: cell-based, human
mir-675-5p [1] = assay: ddPCR of all mature mir-675-5p sequences (TaqMan Advanced miRNA cDNA synthesis) in HEK293 cells
Protocol: Digital Droplet PCR (ddPCR). For mir-675 and mi405 constructs, RNA extraction was carried out as described for QPCR above. For cDNA synthesis, the TaqMan advanced cDNA synthesis kit (Thermo Fisher) was used and cDNA was prepared by following manufacturer's instructions. ddPCR was carried out using 1× ddPCR Supermix for probes (No dUTP) (Bio-Rad), 1× commercially available mir-675 advanced TaqMan probe, or a custom made mi405 advanced TaqMan probe (ThermoFisher) and 50 ng of cDNA. For DUX4 cDNA synthesis, the High-Capacity cDNA Reverse Transcription Kit (Applied Biosystems) was used according to manufacturer's instructions. Within the same cDNA reaction, 1×RT random hexamer primers and 25 pmoles of the Oligo(dT) primer were used to generate cDNA for DUX4 and DUX4-responsive biomarkers and for mouse Rpl13A, used as a reference gene. To quantify DUX4, the ddPCR reaction mixture (20 μL) contained 1× ddPCR Evagreen Supermix (Bio-Rad), 1 μM of forward and reverse DUX4 primers (Sharma et al., J Genet Syndr Gene Ther 2016 August; 7(4):303. doi: 10.4172/2157-7412.1000303. Epub 2016 Aug. 8), and 50 ng of cDNA. To quantify Rpl13A and DUX4-responsive biomarkers (Trim36 and Wfdc3), the 1× ddPCR Supermix for probes (No dUTP) and TaqMan specific probes were used for each of the genes. Droplets were generated using the Automatic Droplet generator QX200 AutoDG (Bio-Rad), the reactions were amplified in a C1000 Touch™ Thermal Cycler with 96-Deep Well Reaction Module (Bio-Rad). Cycling conditions were set up following the QX200 ddPCR Evagreen Supermix protocol. All assays are compatible with an annealing temperature of 58° C. Droplets were then read using the QX200 droplet reader (Bio-Rad). Finally, data were analyzed using the QuantaSoft analysis software (Bio-Rad). For quantification, each reaction of 20 μL was estimated to give at least 10,000 acceptable droplets.
In order to quantify the level of all these mature sequences, the TaqMan advanced miRNA cDNA synthesis method that uses universal reverse transcription (RT) chemistry to synthesize cDNA templates that can be quantified using the TaqMan Advanced miRNA probes was used. In this method, most of the processed mature miRNA sequences were quantified.

DUX4 protein = assay: Western blot of V5-tagged DUX4 protein in co-transfected HEK293 cells; conditions: CMV.DUX4-FL/CMV.eGFP, HEK293, molar ratio 1 to 3, eGFP normalizer, relative to U6-milacZ, N = 3-8
mir-675-5p [2] = assay: TaqMan QRT-PCR of mature mir-675-5p from transfected constructs in HEK293 cells; conditions: HEK293, 24 h post-transfection; for mir-675-5p levels compared to U6.mir-675: 23 mer mature mir-675-5p
Text: (§1) RNA Extraction. RNA from HEK293 cells was extracted for Northern blot assay and QPCR. The miRVANA miRNA isolation kit (ThermoFisher Scientific) was used according to manufacturer's directions to extract total RNA encompassing small RNAs, such as miRNAs. To extract RNA from C57BL/6 skeletal muscles, cryopreserved muscles were crushed under suboptimal temperatures using liquid nitrogen and using mortar and pestle. Crushed muscles were then lysed using […] of miRVANA miRNA isolation kit lysis buffer, a TissueLyser and 1.0 mm zirconia beads (Biospec). Muscle was homogenized at 30 Hz for 30 sec with 10 sec rest. This was repeated 3 times.
(§2) TaqMan Gene Expression Assay. QRT-PCR was carried out to quantify the expression of pri-mir-675, mir-675-5p and mi405 using TaqMan probes (ThermoFisher Scientific). Experiments were started by eliminating genomic DNA from the RNA preparations, and then cDNA was generated using the High-Capacity cDNA Reverse Transcription Kit (Applied Biosystems) following manufacturer's instructions. Within the same cDNA reaction, 1×RT random hexamer primers were used to generate the cDNA for RPL13A, used as a reference gene, and for pri-mir-675. To generate the cDNA for mir-675, the RT mir-675 reverse primer provided by ThermoFisher Scientific was used. For mi405, the mi405 qPCR protocol was done as it was previously described [Wallace et al., Mol. Ther. Methods Clin. Dev. 8: 121-30 (2018)]. To quantify mir-675 and mi405 levels, RNA was extracted using the total RNA protocol for the mirVana miRNA Isolation Kit (Ambion) from HEK293 cells. cDNA was generated using the High-Capacity cDNA Reverse Transcription Kit (Applied Biosystems) using a mix of random hexamer primers and specific reverse primer for pri-mir-675 and mir-675-5p. For mi405, 200 nM of the stem-loop forming primer (5′-[…]-3′) (SEQ ID NO: 144) was also used for the RT step. A custom TaqMan assay (Applied Biosystems) including 1.5 μM of Forward primer (5′-[…]-3′) (SEQ ID NO: 145), 0.7 μM of Reverse primer (5′-GTGCAGGGTCCGAGGT-3′) (SEQ ID NO: 146), and 0.2 μM of mi405 probe (5′-6FAM-ATACGACGTCCAGGAT-3′) (SEQ ID NO: 147) was then run using the CFX Connect Real Time system apparatus (Bio-Rad). RPL13A (Mm02526700_g1; Applied Biosystems) served as the reference gene. The TaqMan gene expression assay consisted of using the TaqMan Gene Expression Master mix and TaqMan probes purchased from ThermoFisher Scientific. 1× of probe was mixed with 1× of the TaqMan Gene Expression Master mix (ThermoFisher Scientific), and with 20 ng of cDNA. The mir-675- and mi405-specific primers and probes were designed to quantify only the mir-675-5p and mi405 mature sequence (see TaqMan Gene Expression Master mix protocol).

pri-mir-675 = assay: TaqMan QRT-PCR of pri-mir-675 from transfected constructs in HEK293 cells; conditions: 24 h post-transfection
Text: as §1, §2

mir-675-5p [3] = assay: Small-transcript northern blot of mir-675 processing in HEK293 cells; conditions: HEK293; anti-mir-675-5p biotinylated probe
Text: Small-Transcript Northern Blots. […] (SEQ ID NO: 148)).

B1: U6.mir-675-2.3.1: mir-675 construct with modified 5' and 3' flanking sequences (nucleic acid)
DNA: TCTAGAGATCCGACGCCGCCATCTCTAGGCCCGCGCCGGCCCCCTCGCACAGACTTGTGGGAGAAGCTCGGCTACTCCCCTGCCCCGGTTAATTTGCATATAATATTTCCTAGTAACTATAGAGGCTTAATGTGCGATAAAAGACAGATAATCTGTTCTTTTTAATACTAGCTACATTTTACATGATAGGCTTGGATTTCTATAAGAGATACAAATACTAAATTATTATTTTAAAAAACAGCACAAAAGGAAACTCACCCTAACTGTAAAGTAATTGTGTGTTTTGAGACTATAAATATCCCTTGGAGAAAAGCCTTGTTTGAATCACACTGCCCCAGGGTCTGGTGCGGAGAGGGCCCACAGTGGACTTGGTGACGCTGTATGCCCTCACCGCTCAGCCCCTGGGGATAACTCCTAATCACACTTTTTT
fold change of all mature mir-675-5p sequences compared to U6.mir-675 (mir-675-5p [1]): 187±40% | Average inhibition efficiency (%) of DUX4 protein levels (DUX4 protein): 58 ± 8 (N = 3) % | mir-675-5p levels compared to U6.mir-675 (mir-675-5p [2]): 241±29% | pri-mir-675 levels compared to U6.mir-675 (pri-mir-675): 274±49%

B2: U6.mir-675NF: U6 mir-675 construct with no flanking sequences (nucleic acid)
DNA: TCTAGAGATCCGACGCCGCCATCTCTAGGCCCGCGCCGGCCCCCTCGCACAGACTTGTGGGAGAAGCTCGGCTACTCCCCTGCCCCGGTTAATTTGCATATAATATTTCCTAGTAACTATAGAGGCTTAATGTGCGATAAAAGACAGATAATCTGTTCTTTTTAATACTAGCTACATTTTACATGATAGGCTTGGATTTCTATAAGAGATACAAATACTAAATTATTATTTTAAAAAACAGCACAAAAGGAAACTCACCCTAACTGTAAAGTAATTGTGTGTTTTGAGACTATAAATATCCCTTGGAGAAAAGCCTTGTTTGCCCCAGGGTCTGGTGCGGAGAGGGCCCACAGTGGACTTGGTGACGCTGTATGCCCTCACCGCTCAGCCCCTGGGGTTTTTT
fold change of all mature mir-675-5p sequences compared to U6.mir-675 (mir-675-5p [1]): 176±60% | Average inhibition efficiency (%) of DUX4 protein levels (DUX4 protein): 69 ± 6 (N = 5) % | mature mir-675-5p bands on northern blot (mir-675-5p [3]): detectable mir-675 mature sequences | pri-mir-675 levels compared to U6.mir-675 (pri-mir-675): 213±28%

B3: U6.mir-675H: mir-675 construct with modified flanking sequences and UA dinucleotide (nucleic acid)
DNA: TCTAGAGATCCGACGCCGCCATCTCTAGGCCCGCGCCGGCCCCCTCGCACAGACTTGTGGGAGAAGCTCGGCTACTCCCCTGCCCCGGTTAATTTGCATATAATATTTCCTAGTAACTATAGAGGCTTAATGTGCGATAAAAGACAGATAATCTGTTCTTTTTAATACTAGCTACATTTTACATGATAGGCTTGGATTTCTATAAGAGATACAAATACTAAATTATTATTTTAAAAAACAGCACAAAAGGAAACTCACCCTAACTGTAAAGTAATTGTGTGTTTTGAGACTATAAATATCCCTTGGAGAAAAGCCTTGTTTGACCGTTTAAACCCCAGGGTCTGGTGCGGAGAGGGCCCACAGTGGACTTGGTGACGCTGTATGCCCTCACCGCTCAGCCCCTGGGGCGCACGCCAGTTTTTT
fold change of all mature mir-675-5p sequences compared to U6.mir-675 (mir-675-5p [1]): 201±38% | Average inhibition efficiency (%) of DUX4 protein levels (DUX4 protein): 89±6% | Average inhibition efficiency (%) of DUX4 protein levels (DUX4 protein; listed as U6-mir-675H): 89 ± 6 (N = 3) % | mir-675-5p levels compared to U6.mir-675 (mir-675-5p [2]): 774±93% | ratio of mir-675-5p/pri-mir-675 compared to U6.mir-675 (mir-675-5p [2]): 303±57% | pri-mir-675 levels compared to U6.mir-675 (pri-mir-675): 256±37%
